Test results as given in patent US20230192897A1 (NUMAB THERAPEUTICS, published 2023).
Where two headings read alike, the source gives them in different places.

Tests used:
human PDL1 on cells [1] = target: T1, human PDL1 on cells (human, UniProt Q9NZQ7 19-290); assay: cell-based or functional assay
[2] = target: T2, CD137 on Jurkat NFkB reporter cells (human, UniProt Q07011 24-255); assay: cell-based or functional assay
[3] = target: human PDL1 extracellular domain (human, UniProt Q9NZQ7 19-238); assay: SPR, IgG format captured
Description: (§1) Affinity to PDL1 of the different species was determined by SPR measurements using a Biacore T200 device (GE Healthcare). An antibody specific for the Fc region of human IgGs was immobilized on a sensor chip (CM5 sensor chip, GE Healthcare) by amine-coupling. For all formats, with the exception of the Fc containing Morrison formats, PDL1-Fc chimeric protein from different species were captured by the immobilized antibody.
(§2) The Fc containing formats were directly captured by the antibody specific for the Fc region of human IgGs. Two-fold serial dilutions of PDL1 extracellular domain or CD137 extracellular domain ranging from 90 to 0.35 nM were tested for binding to the IgG captured on the biosensor chip. After each injection cycle, surfaces were regenerated with one injection of a 3 M MgCl2 solution.

[4] = target: T3, human CD137 extracellular domain (human, UniProt Q07011 24-186); assay: SPR, IgG format captured
T3 construct: also called CD137 (PeproTech, cat. 310-15)
Description: as §1, §2

biotinylated human PDL1 [5] = target: T4, biotinylated human PDL1 (human, UniProt Q9NZQ7 19-238, limits assumed, biotinylated); assay: competition ELISA B7.1/PDL1
T4 construct: also called biotinylated PDL1
Summary of the method: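 Test mixtures containing biotinylated human PDL1 were pre-incubated 1 h at room temperature, then incubated 1.5 h on the plate under agitation. Bound PDL1 detected with 10 ng/ml streptavidin-polyHRP40 and TMB, stopped at 6 min with HCl, read at 450 nm minus 690 nm. IC₅₀ from 4PL fit.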

biotinylated human PDL1 [6] = target: T4, biotinylated human PDL1; assay: competition ELISA PD-1/PDL1
human PDL1 on cells [7] = target: T1, human PDL1 on cells; assay: cell-based or functional assay; remark: listed apart in the source
[8] = target: T2, CD137 on Jurkat NFkB reporter cells; assay: cell-based or functional assay; remark: listed apart in the source

IC50 (ng/ml), NF-AT potency assay (human PDL1 on cells [1]) [ng/mL]	rel. IC50 (avelumab/test) (human PDL1 on cells [1]) [fold]	IC50 (ng/ml), NFkB reporter, CHO-PD-L1, 24 h [2] [ng/mL]	rel. IC50 (urelumab/test), NFkB reporter, CHO-PD-L1, 24 h [2] [fold]	koff [3] [s⁻¹]	Kd [4] [nM]	koff [4] [s⁻¹]	kon [4] [M⁻¹ s⁻¹]	IC50 (biotinylated human PDL1 [5]) [µg/mL]	rel. IC50 (IC50 avelumab/IC50 test) (biotinylated human PDL1 [5]) [fold]	IC50 (biotinylated human PDL1 [6]) [µg/mL]	rel. IC50 (IC50 avelumab/IC50 test) (biotinylated human PDL1 [6]) [fold]	IC50 (ng/ml), NF-AT potency assay (human PDL1 on cells [7]) [ng/mL]	rel. IC50 (avelumab/test) (human PDL1 on cells [7]) [fold]	EC50, NFkB reporter, CHO-PDL1, 6 h [8] [µg/mL]	EC50, NFkB reporter, CHO-PDL1, 24 h [8] [µg/mL]	IC50 (ng/ml), NFkB reporter, CHO-PD-L1, 24 h [8] [ng/mL]	max. activation (%), NFkB reporter, CHO-PD-L1, 24 h [8] [%]	rel. IC50 (urelumab/test), NFkB reporter, CHO-PD-L1, 24 h [8] [fold]	Binder
93.8	0.52	289	0.09	6.5e-05	2.3	0.00042	180000	0.029	0.3	0.00454	0.37								PRO1059 (bispecific antibody, human IgG1, kappa, L234A L235A, silent hIgG1 anti-PDL1 with anti-CD137 scFv on the light chain; also called 33-03-G02 IgG1 LC with 38-02-A04 sc01 scFv; Morrison-L) light: DIQMTQSPSSLSASVGDRVTITCQASQSINDYLAWYQQKPGKAPKLLIYKASTLASGVPSRFSGSGSGTDFTLTISSLQPEDFATYYCQQGYIITDIDNVFGTGTKVTVLGTVAAPSVFIFPPSDEQLKSGTASVVCLLNNFYPREAKVQWKVDNALQSGNSQESVTEQDSKDSTYSLSSTLTLSKADYEKHKVYACEVTHQGLSSPVTKSFNRGECGGGGSGGGGSIQMTQSPSSLSASVGDRVTITCQASQSINNVLAWYQQKPGKAPKLLIYRASTLASGVPSRFSGSGSGTDFTLTISSLQPEDFATYYCQSSYGNYGDFGTGTKVTVLGGGGGSGGGGSGGGGSGGGGSQVQLQESGPGLVKPSETLSLTCKVSGFSFSNSYWICWIRQPPGKGLEWIGCTFVGSSDSTYYANWAKGRVTISVDSSKNQFSLKLSSVTAADTAVYYCARHPSDAVYGYANNLWGQGTLVTVSS heavy: QVQLQESGPGLVKPSETLSLTCKVSGFSFSSGYDMCWIRQPPGKGLEWIGCVVAGSVDITYYASWAKGRVTISVDSSKNQFSLKLSSVTAADTAVYYCARKDAYSDAFNLWGQGTLVTVSSASTKGPSVFPLAPSSKSTSGGTAALGCLVKDYFPEPVTVSWNSGALTSGVHTFPAVLQSSGLYSLSSVVTVPSSSLGTQTYICNVNHKPSNTKVDKRVEPKSCDKTHTCPPCPAPEAAGGPSVFLFPPKPKDTLMISRTPEVTCVVVDVSHEDPEVKFNWYVDGVEVHNAKTKPREEQYNSTYRVVSVLTVLHQDWLNGKEYKCKVSNKALGAPIEKTISKAKGQPREPQVYTLPPSREEMTKNQVSLTCLVKGFYPSDIAVEWESNGQPENNYKTTPPVLDSDGSFFLYSKLTVDKSRWQQGNVFSCSVMHEALHNHYTQKSLSLSPGK
				5e-05	1.3	0.00037	280000	0.0195	0.51	0.0113	0.32	96.5	0.68	0.0522	0.0869	86.9	134	0.54	PRO1062 (bispecific antibody, human IgG1, kappa, L234A L235A, also called 33-03-G02 sc01 IgG1 HC with 38-27-C05 sc01 scFv; Morrison-H) light: DIQMTQSPSSLSASVGDRVTITCQASQSINDYLAWYQQKPGKAPKLLIYKASTLASGVPSRFSGSGSGTDFTLTISSLQPEDFATYYCQQGYIITDIDNVFGTGTKVTVLGTVAAPSVFIFPPSDEQLKSGTASVVCLLNNFYPREAKVQWKVDNALQSGNSQESVTEQDSKDSTYSLSSTLTLSKADYEKHKVYACEVTHQGLSSPVTKSFNRGEC heavy: QVQLQESGPGLVKPSETLSLTCKVSGFSFSSGYDMCWIRQPPGKGLEWIGCVVAGSVDITYYASWAKGRVTISVDSSKNQFSLKLSSVTAADTAVYYCARKDAYSDAFNLWGQGTLVTVSSASTKGPSVFPLAPSSKSTSGGTAALGCLVKDYFPEPVTVSWNSGALTSGVHTFPAVLQSSGLYSLSSVVTVPSSSLGTQTYICNVNHKPSNTKVDKRVEPKSCDKTHTCPPCPAPEAAGGPSVFLFPPKPKDTLMISRTPEVTCVVVDVSHEDPEVKFNWYVDGVEVHNAKTKPREEQYNSTYRVVSVLTVLHQDWLNGKEYKCKVSNKALGAPIEKTISKAKGQPREPQVYTLPPSREEMTKNQVSLTCLVKGFYPSDIAVEWESNGQPENNYKTTPPVLDSDGSFFLYSKLTVDKSRWQQGNVFSCSVMHEALHNHYTQKSLSLSPGKGGGGSGGGGSIQMTQSPSSLSASVGDRVTITCQASQSINNVLAWYQQKPGKAPKLLIYRASTLASGVPSRFSGSGSGTDFTLTISSLQPEDFATYYCQSSYGNYGDFGTGTKVTVLGGGGGSGGGGSGGGGSGGGGSQVQLQESGPGLVKPSETLSLTCKVSGFSFSNSYWICWIRQPPGKGLEWIGCTFVGSSDSTYYANWAKGRVTISVDSSKNQFSLKLSSVTAADTAVYYCARHPSDAVYGYANNLWGQGTLVTVSS
